Results reported in PMC8441146, “DNA-guided photoactivatable probe-based chemical proteomics reveals the reader protein of mRNA methylation”.

Columns and labels:
DDX1 lacking D2 domain = target: T1, DDX1 lacking D2 domain (UniProt Q92499 1-450); assay: ITC; ITC: 20 mM Tris pH 7.5, 150 mM NaCl, 25 C; YTH labelling: 3 uM YTH, 12 uM BP/CP (200 mM NaCl chosen after optimization); pull-down: HeLa RIPA lysate, 4 C, UV 6; conditions: protein: recombinant; tags: pET28a, Ni-NTA purified (His)
T1 sequence: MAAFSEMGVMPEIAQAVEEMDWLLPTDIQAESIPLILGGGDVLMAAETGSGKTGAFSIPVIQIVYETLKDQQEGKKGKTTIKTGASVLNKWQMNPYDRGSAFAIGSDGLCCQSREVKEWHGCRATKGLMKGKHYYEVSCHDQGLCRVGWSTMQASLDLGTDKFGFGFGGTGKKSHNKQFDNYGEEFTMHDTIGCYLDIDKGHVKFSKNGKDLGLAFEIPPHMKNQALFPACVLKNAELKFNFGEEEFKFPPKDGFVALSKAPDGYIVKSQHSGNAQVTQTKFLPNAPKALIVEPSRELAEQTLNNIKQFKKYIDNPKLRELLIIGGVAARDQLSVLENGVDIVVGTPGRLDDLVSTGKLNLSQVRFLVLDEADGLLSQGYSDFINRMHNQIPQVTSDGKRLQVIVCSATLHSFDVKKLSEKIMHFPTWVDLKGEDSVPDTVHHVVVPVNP

DDX1 = target: T2, DDX1 (UniProt Q92499 1-728); assay: as above; conditions: protein: recombinant; tags: pET28a, Ni-NTA purified (His)
T2 sequence: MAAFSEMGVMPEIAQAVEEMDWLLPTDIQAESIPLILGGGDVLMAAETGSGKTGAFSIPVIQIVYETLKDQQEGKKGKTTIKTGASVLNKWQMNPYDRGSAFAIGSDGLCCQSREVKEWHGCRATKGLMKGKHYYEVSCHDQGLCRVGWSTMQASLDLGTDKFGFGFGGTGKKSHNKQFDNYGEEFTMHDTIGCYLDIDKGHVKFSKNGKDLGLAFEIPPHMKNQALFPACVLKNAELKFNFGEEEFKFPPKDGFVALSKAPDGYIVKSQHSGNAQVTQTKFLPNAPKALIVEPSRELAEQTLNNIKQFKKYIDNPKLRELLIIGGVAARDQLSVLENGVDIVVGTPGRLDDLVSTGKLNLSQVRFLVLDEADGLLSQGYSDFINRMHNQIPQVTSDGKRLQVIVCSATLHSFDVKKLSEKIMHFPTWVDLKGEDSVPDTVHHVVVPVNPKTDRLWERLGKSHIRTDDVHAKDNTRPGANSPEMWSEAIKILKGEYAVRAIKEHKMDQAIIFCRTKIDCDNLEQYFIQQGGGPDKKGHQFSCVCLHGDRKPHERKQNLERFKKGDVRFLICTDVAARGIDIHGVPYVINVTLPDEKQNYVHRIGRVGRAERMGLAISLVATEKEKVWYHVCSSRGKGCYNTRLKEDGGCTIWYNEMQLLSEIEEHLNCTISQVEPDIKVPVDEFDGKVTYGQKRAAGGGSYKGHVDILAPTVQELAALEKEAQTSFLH

## AAGAUC (ssRNA, 2'-O-methyl A) [Am-modified ssRNA (ITC)]
DDX1 lacking D2 domain
  binding result: no binding
DDX1
  binding result: binds
